Laboratory results published in patent US20210079423.

Experiments:
[1] = tested on: PR402: SP(HSA)-PTEN-L-HSA-6xHis (secreted, mature form)
[2] = tested on: PR405: SP(HSA)-PTEN-L-MMP2/9-HSA-6xHis (secreted form)
[3] = tested on: PR406: SP(HSA)-PTEN-L-cathepsin B-HSA-6xHis (secreted form)
[4] = tested on: PR407: SP(HSA)-PTEN-L-cathepsin B*-HSA-6xHis (secreted form)
[5] = tested on: PR408: SP(HSA)-PTEN-L-cathepsinB**-HSA-6xHis (secreted form)

Sequence of recombinant active MMP2 protease (Enzo cat. #BML-SE237-0010) (chain, as listed by the source): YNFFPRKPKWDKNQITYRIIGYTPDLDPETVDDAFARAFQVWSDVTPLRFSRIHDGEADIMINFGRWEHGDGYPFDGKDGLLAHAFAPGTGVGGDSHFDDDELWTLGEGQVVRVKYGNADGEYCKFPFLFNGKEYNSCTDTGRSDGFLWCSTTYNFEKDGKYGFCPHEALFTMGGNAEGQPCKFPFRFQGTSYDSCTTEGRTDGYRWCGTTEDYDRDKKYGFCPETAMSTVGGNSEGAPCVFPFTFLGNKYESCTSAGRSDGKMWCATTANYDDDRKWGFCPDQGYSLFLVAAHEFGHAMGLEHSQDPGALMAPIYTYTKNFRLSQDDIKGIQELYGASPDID

| Substance | in vitro cleavage of the fusion (F-1 anti-PTEN western blot of digests at t=0, 4 h, 21 h) [1] | in vitro cleavage of the fusion [2] | in vitro cleavage of the fusion [3] | pH dependence of in vitro cleavage (pH 5.0 against pH 7.0 buffer) [4] | pH dependence of in vitro cleavage (pH 5.0 against pH 7.0 buffer) [5] | in vitro cleavage of the fusion, release of a PTEN-L-like fragment (~70 KDa) [2] | in vitro cleavage of the fusion [4] | in vitro cleavage of the fusion [5] |
| --- | --- | --- | --- | --- | --- | --- | --- | --- |
| active CATSB (Cathepsin B; BioVision #7580-5) | PR402 was not appreciably cleaved by either recombinant MMP2 or CATSB | PR405 (SEQ ID NO:129; cDNA SEQ ID NO:157) was not cleaved by CATSB | though it did not cleave PR406 (SEQ ID NO:130; cDNA SEQ ID NO:158) | CATSB only cleaves PR407 and PR408 at a low pH (FIG. 15) | CATSB only cleaves PR407 and PR408 at a low pH (FIG. 15) |  |  |  |
| recombinant active MMP2 protease (Enzo cat. #BML-SE237-0010) | PR402 was not appreciably cleaved by either recombinant MMP2 or CATSB |  | MMP2 did however cleave its consensus site (SEQ ID NO:165) on PR405 only |  |  | MMP2 did however cleave its consensus site (SEQ ID NO:165) on PR405 only; this cleavage released a PTEN-L-like fragment (~70 KDa) | MMP2 did however cleave its consensus site (SEQ ID NO:165) on PR405 only | MMP2 did however cleave its consensus site (SEQ ID NO:165) on PR405 only |
